Where no end group is shown, it is not given here. Fuc = fucose (fucosylation)

We go through seven molecules from patent US6248715A, “Method of treating a urokinase-type plasminogen activator-mediated disorder” (Chiron Corporation, priority 1995, dated 2001).

The target in one assay is uPAR (Homo sapiens, UniProt Q03405). The note with it: cited from earlier work.
Assay [1] addresses Baculovirus-derived recombinant human urokinase receptor, truncated soluble molecule, biotinylated (human) (UniProt Q03405). In words: phage panning on biotinylated soluble uPAR on streptavidin plates; eluted cfu as a percentage of input; control phagemid.
For assay [2], the system named is SaOS-2 osteosarcoma cell line. The note with it: cited from earlier work.
In assay [3] the target is Baculovirus-derived recombinant human urokinase receptor, truncated soluble molecule, biotinylated (human) (UniProt Q03405). Nature of the assay: phage panning on biotinylated soluble uPAR on streptavidin plates; eluted cfu as a percentage of input; control phage.
Assay [4] has the same target. Nature of the assay: phage panning on biotinylated soluble uPAR on streptavidin plates; eluted cfu as a percentage of input.
Assay [5] addresses Baculovirus-derived recombinant human urokinase receptor, truncated soluble molecule, biotinylated (human, UniProt Q03405, biotinylated with NHS-biotin). In words: radio-receptor competition assay: 125I-ATF tracer on biotinylated soluble uPAR immobilised on streptavidin plates. The protocol:
Baculovirus-derived recombinant human urokinase receptor was expressed as a truncated, soluble molecule as described previously for mouse L-cells (Masucci et al., *J Biol Chem* (1991) 266:8655). The purified receptor was biotinylated with NHS-biotin, and immobilized at 1 μg/mL in PBS/0.1% BSA on streptavidin coated 96-well plates. Human uPA ATF (residues 1–135, obtained from M. Shuman, University of California, San Francisco) was iodinated using the Iodogen method (Pierce), and used as tracer. The ^125I-ATF was incubated at 100–500 pM with increasing amounts of huPA_1-48 in triplicate (100 pM-1 μM) for 2 hours at room temperature in 0.1% BSA/PBS in a total volume of 200 μL. The plates were then washed 3 times with PBS/BSA, and the remaining bound radioactivity determined.

Sequence of uPAR (Q03405 23-335): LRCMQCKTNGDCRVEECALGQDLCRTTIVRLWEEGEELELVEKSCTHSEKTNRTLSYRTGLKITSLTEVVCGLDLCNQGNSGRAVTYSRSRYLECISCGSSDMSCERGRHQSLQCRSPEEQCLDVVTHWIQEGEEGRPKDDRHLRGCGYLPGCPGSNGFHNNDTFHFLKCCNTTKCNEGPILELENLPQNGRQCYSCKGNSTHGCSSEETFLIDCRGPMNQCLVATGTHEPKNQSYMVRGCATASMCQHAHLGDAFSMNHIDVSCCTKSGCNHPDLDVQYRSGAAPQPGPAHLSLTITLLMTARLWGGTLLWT

With “uPA12-32: the critical domain alone, residues 12-32 of uPA (Appella et al.) (DCLNGGTCVSNKYFSNIHWCN; UniProt P00749 32-52, looked up, fragment)”, in the assay with uPAR (compared with intact ATF), the “affinity relative to intact ATF (fold less)” value is reported as “about 100 fold”. Besides, the Kd with uPAR (critical domain alone, read-out: affinity for uPAR) was 40 nM.

Consider “Phagemid pGMEGF displaying M1-FLAG-EGF-medium long pIII (from UniProt P01133)”, for which the % Yield (+uPAR) in assay [1] worked out at 0.0012%.

As for “fucosylated EGF-like domain: fucosylated EGF-like domain (uPA4-43, produced by cleavage from pro-uPA) (LHQVPSNCDCLNGGT(Fuc)CVSNKYFSNIHWCNCPKKFGGQHCE; cysteine pairing not given here; UniProt P00749 24-63, looked up, fragment)”, the mitogenic activity entry in assay [2] is listed as “mitogenic”.

Turning to “LP67 control phage (ampicillin-resistant M13)”, the % Yield (+uPAR) in assay [3] was determined as 0.0099%.

As for “Phagemid pHM3a displaying Glu-tag-UPAELD-short pIII (Glutag-uPA1-48) (from UniProt P00749)”, the % Yield (+uPAR) in assay [4] was 0.08%.

Regarding “Phagemid pHM1a displaying M1-FLAG-UPAELD-short pIII (M1Flag-uPA1-48) (from UniProt P00749)”, in assay [4], the % Yield (+uPAR) is 0.094%.

With SNELHQVPSNCDCLNGGTCVSNKYFSNIHWCNCPKKFGGQHCEIDKSK (ligand, ends and bridges not checked; cysteine pairing not given here), the Kd in assay [5] worked out at 0.3 nM.
